B1: B. subtilis: purified 4-methyl-5-(2-hydroxyethyl)thiazole kinase from Bacillus subtilis (SEQ ID NO:1) (protein, listed as Bacillus subtilis)
chain: MDAQSAAKCLTAVRRHSPLVHSITNNVVTNFTANGLLALGASPVMAYAKEEVADMAKIAGALVLNIGTLSKESVEAMIIAGKSANEHGVPVILDPVGAGATPFRTESARDIIREVRLAAIRGNAAEIAHTVGVTDWLIKGVDAGEGGGDIIRLAQQAAQKLNTVIAITGEVDVIADTSHVYTLHNGHKLLTKVTGAGCLLTSVVGAFCAVEENPLFAAIAAISSYGVAAQLAAQQTADKGPGSFQIELLNKLSTVTEQDVQEWATIERVTVS
B2: E. coli: purified 4-methyl-5-(2-hydroxyethyl)thiazole kinase from Escherichia coli (SEQ ID NO:2) (protein)
chain: MQVDLLGSAQSAHALHLFHQHSPLVHCMTNDVVQTFTANTLLALGASPAMVIETEEASQFAAIASALLINVGTLTQPRAQAMRAAVEQAKSSQTPWTLDPVAVGALDYRRHFCHELLSFKPAAIRGNASEIMALAGIANGGRGVDTTDAAANAIPAAQTLARETGAIVVVTGEMDYVTDGHRIIGIHGGDPLMTKVVGTGCALSAVVAACCALPGDTLENVASACHWMKQAGERAVARSEGPGSFVPHFLDALWQLTQEVQA
modifications: E. coli
B3: Rh. leguminosarum: purified 4-methyl-5-(2-hydroxyethyl)thiazole kinase from Rhizobium leguminosarum (SEQ ID NO:3) (protein, listed as Rhizobium leguminosarum)
chain: MQTRTTPGAMLKAMREKPPLVQCITNYVAMNIAANVLLAAGASPAMVHAAEEAGEFAAIASALTINIGTLSTQWIDGMQAAAKAATSAGKPWVLDPVAHYATAFRRNAVAELLALKPTIIRGNASEIIALAGGESRGQGVDSRDPVEQAEGSARWLAERQRAVVAVTGAVDFVTDGERAVRIEGGSALMPQVTALGCSLTCLVGAFAATAPEDIFGATVAALSTFAIAGEEAALGAAGPGSFSWRFLDALAALDAETLDARARISAA
B4: Short chain alcohol dehydrogenase-like protein from Marinobacter algicola (SEQ ID NO: 16): short-chain dehydrogenase from Marinobacter algicola (Uniprot A6EUH6) (protein)
chain: MNYFLTGGTGFIGRFLVEKLLARGGTVHVLVREQSQEKLDKLRERWGADESRVKAVIGDLTSPNLGIDAKTMKSLKGNIDHFFHLAAVYDMGADEKSQQATNIEGTHSAVNAAAAMEAGCFHHVSSIAAAGLFKGTFREDMFEEAEKLDHPYLLTKHESEKVVRESCKVPFRIYRPGMVVGHSKTGEMDKVDGPYYFFKMIQKIRHALPQWVPTIGIEGGRLNIVPVDFVVNAMDHIAHLKGEDGNCFHLVDSDPYKVGEILNIFSEAGHAPRMAMRIDSRMFGFVPPFIRQSLKNLPPVKRLTTALLDDMGIPPSVLSFINYPTRFDARETERVLKDTGIVVPRLESYAAVLWDFWERNLDPDLFKDRTLRGTVEGKVCVITGGTSGIGLATAQKLADAGAILVIGARKKERLMEVAAELEARGGNVHAYQCDFADMDDCDRFVKTVLDNHGHVDVLVNNAGRSIRRSLALSFDRFHDFERTMQLNYFGSVRLIMGFAPAMLERRRGHVVNISSIGVLTNAPRFSAYVASKSALDTFSRCAAAEWSDRNVTFTTINMPLVKTPMIAPTKIYDSVPTLTPDEAAEMVADAIVYRPKRIATRLGIFAQVMQALAPKMGEIVMNTGYRMFPDSPAAAGSRSGAKPKVSSEQVAFAAIMRGIYW
modifications: Marinobacter algicola DG893
B5: Short chain alcohol dehydrogenase-like protein from Marinobacter manganoxydans (SEQ ID NO: 14): short-chain dehydrogenase from Marinobacter manganoxydans (Uniprot G6YQS9) (protein)
chain: MNYFLTGGTGFIGRFLVEKLLARGGTVHVLVREQSQDKLDKLRERWGADETQVKAVIGDLTSKNLGIDAKTMKALKGKIDHFFHLAAVYDMGADEEAQQATNIEGTRAAVNAAEAMGAKHFHHVSSIAAAGLFKGIFREDMFEEAEKLDHPYLRTKHESEKVVREECKVPFRIYRPGMVIGHTATGEMDKVDGPYYFFKMIQKIRHALPQWVPTIGVEGGRLNIVPVDFVVNAMDHIAHLEGEDGKCFHLVDTDPYKVGEILNIFSEAGHAPRMGMRIDSRMFGFIPPFIRQSLKNLPPVKRLTSAILDDMGIPPSVMSFINYPTRFDARETERVLKGTGIEVPRLPDYAPVIWDYWERNLDPDLFKDRTLKGTVEGRVCVVTGATSGIGLATAQKLADAGAILVIGARKLERLKEVAAELESRGASVHAYPCDFSDMDACDEFVKTVLDNHGQVDVLVNNAGRSIRRSLDLSFDRFHDFERTMQLNYFGSVRLIMGFAPKMLENRRGHVVNISSIGVLTNAPRFSAYVASKSALDAFSR
modifications: Marinobacter manganoxydans
B6: Short chain alcohol dehydrogenase-like protein from Marinobacter sp. ELB17 (SEQ ID NO: 15): short-chain dehydrogenase from Marinobacter sp. ELB17 (Uniprot A3JCC5) (protein)
chain: MNYFVTGGTGFIGRFLIARLLARGAIVHVLVREQSVQKLADLREKLGADEKQIKAVVGDLTAPGLGLDKKTLKQLSGKIDHFFHLAAIYDMSASEESQQAANIDGTRAAVAAAEALGAGIFHHVSSIAVAGLFKGTFREDMFAEAGKLDHPYFSTKHESERVVRDECKLPFRIYRPGMVIGDSATGEMDKVDGPYYFFKMIQKIRGALPQWVPTIGLEGGRLNIVPVNFVADALDHIAHLPDEDGKCFHLVDSDPYKVGEILNIFCEAGHAPKMGMRIDSRMFGFVPPFIRQSLKNLPPVKRMGRALLDDLGIPASVLSFINYPTRFDARETERVLQGTGIEVPRLPDYAPVIWDYWERNLDPDLFTDRTLRGTVEGKVCVVTGATSGIGLATAEKLADAGAILVIGARTQETLDQVSAQLNARGADVHAYQCDFADMDACDRFIQTVSENHGAVDVLINNAGRSIRRSLDKSFDRFHDFERTMQLNYFGSLRLIMGFAPAMLERRRGHIINISSIGVLTNAPRFSAYVASKAALDSFSRCAAAEWSDRHVCFTTINMPLVKTPMIAPTKIYDSVPTLSPEEAADMVVNAIVYRPKRIATRMGVFAQVLNAVAPKASEILMNTGYKMFPDSMPKKGKEVSAEKGASTDQVAFAAIMRGIHW
modifications: Marinobacter sp. ELB17
B7: Short chain alcohol dehydrogenase-like protein from Hahella chejuensis: short-chain dehydrogenase from Hahella chejuensis (Uniprot Q2SCE0; SEQ ID NO: 17) (protein, listed as Hahella chejuensis)
chain: MNYFVTGGTGFIGRFLVPKLLKRGGTVYLLVREASLPKLDELRERWNASDEQVVGVVGDLAQPMLGVSEKDAAMLRGKVGHFFHLAAIYDMQASAESQEQANIEGTRNAVKLADSLKAACFHHVSSIAAAGLYRGIFREDMFEEAEKLDNPYLRTKHESEKVVREECQTPWRVYRPGMVVGHSKTGEIDKIDGPYYFFKLIQKLRSALPQWMPTVGLEGGRINIVPVDFVVDAMDHIAHAEGEDGKCFHLTDPDPYKVGEILNIFAEAGHAPKMAMRIDARMFGFIPPMIRQGIARLPPVQRMKNAVLNDLGIPDEVMSFINYPTRFDNRETERLLKGTAIAVPRLQDYSPAIWDYWERHLDPDLHKDRTLRGAVEGRVCVITGATSGIGLSAARKLAEAGAKVVIAARTLEKLQEVKKELEELGGEVYEYSVDLSDLEDCDRFVANVLKDLGHVDVLVNNAGRSIRRSIQHAFDRFHDFERTMQLNYFGSLRLIMGFAPSMLERRRGHIVNISSIGVLTNAPRFSAYVASKAALDAFSRCAAAEFSDKNVTFTTINMPLVRTPMISPTKIYDSVPTLTPEEAADLVAEAIIHRPKRIATRLGVFAQVLHSMAPKFSEIIMNTGFKMFPDSSAATGGKDGEKPKVSTEQVAFAAIMRGIHW

Data on seven molecules can be found in patent US9169496B2, “Method for the enzymatic production of butadiene” (Scientist of Fortune, S.A., priority 2011, dated 2015).

A short description of one test: Screening for crotyl alcohol phosphorylation activity (pyruvate kinase/lactate dehydrogenase coupled ADP assay). In kind it is biochemical. Conditions: 50 mM crotyl alcohol (cis and trans mixture), 5 mM ATP, 0.05 mg/ml enzyme, 37° C., pH 7.5. As to the method:
The release of ADP that is associated with crotyl alcohol phosphorylation was quantified using the pyruvate kinase/lactate dehydrogenase coupled assay (FIG. 5). The purified 4-methyl-5-(2-hydroxyethyl)thiazole kinases from Escherichia coli (SEQ ID NO:2), Bacillus subtilis (SEQ ID NO:1), Rhizobium leguminosarum (SEQ ID NO:3) were evaluated for their ability to phosphorylate crotyl alcohol releasing ADP. The studied enzymatic reaction was carried out under the following conditions at 37° C.: • 50 mM Tris-HCl pH 7.5 • 10 mM MgCl2 • 100 mM KCl • 5 mM ATP • 0.4 mM NADH • 1 mM Phosphoenolpyruvate • 3 U/ml Lactate dehydrogenase • 1.5 U/ml Pyruvate kinase • 50 mM crotyl alcohol, mixture cis and trans • The pH was adjusted to 7.5
Each assay was started by addition of a particular enzyme at a concentration 0.05 mg/ml and the disappearance of NADH was monitored by following the absorbance at 340 nm.
On to B1, for which the “Activity, micromole/min · mg protein” value is recorded as 0.014 micromole/min · mg protein. Regarding B2, the “Activity, micromole/min · mg protein” value is listed as 0.220 micromole/min · mg protein. Same read-out and setting: in the case of B3 it was 0.087 micromole/min · mg protein.

The same test, now with this note: 50 mM crotyl alcohol, 37° C.
B2: the “ADP production in the presence of crotyl alcohol” value was “reproducible and significant increase in ADP production”.

For the molecule B3, the “ADP production in the presence of crotyl alcohol” value was “reproducible and significant increase in ADP production”.

A further test is described as follows: Crotonyl-CoA reductase assay, NADPH decrease at 340 nm. In kind it is biochemical. Conditions: 5 mM trans crotonyl-CoA, 0.1-0.4 mM NADPH, 0.5-1 mg/ml enzyme, 37° C., pH 7.5. From the text:
Sequences of short-chain dehydrogenases/reductases inferred from the genomes of prokaryotic organisms were generated by oligonucleotide concatenation to fit the codon usage of E. coli. […] The genes thus synthesized were cloned in a pET25b expression vector and the proteins were produced according to the protocol described in Example 1.
Regarding B4, the “Activity, μmol/min/mg protein” value is listed as 4 μmol/min/mg protein. Same read-out and setting: in the case of B5 it was 7.5 μmol/min/mg protein; in that of B6, 1.2 μmol/min/mg protein; in that of B7, 4.9 μmol/min/mg protein.
